assay: soluble on expression in E. coli; label from the status in PepcDB or PDB records

| Sequence | soluble on expression in E. coli |
| --- | --- |
| MSEPLDLNQLAQKIKQWGLELGFQQVGITDTDLSESEPKLQAWLDKQYHGEMDWMARHGMLRARPHELLPGTLRVISVRMNYLPANAAFASTLKNPKLGYVSRYALGRDYHKLLRNRLKKLGEMIQQHCVSLNFRPFVDSAPILERPLAEKAGLGWTGKHSLILNREAGSFFFLGELLVDIPLPVDQPVEEGCGKCVACMTICPTGAIVEPYTVDARRCISYLTIELEGAIPEELRPLMGNRIYGCDDCQLICPWNRYSQLTTEEDFSPRKPLHAPELIELFAWSEEKFLKVTEGSAIRRIGHLRWLRNIAVALGNAPWDETILTALESRKGEHPLLDEHIAWAIAQQIERRNACIVEVQLPKKQRLVRVIEKGLPRDA | soluble |
| MSLKKVNVTYALLYDKTKEKILMVKNKGKNGSYYTLPGGAVKLGETLEEAVIREVKEETGLHITVNGICYISEAFFEERGHHAIFFNFLGEIIGGETNITRPKEIEEITWMELHIASPHLRIPEHLVNMLKKKETVPYFFNGTIVHQSSEGHHHHHH | not soluble |
| MKITKLETVRVAERTNLLWVLVHTDEGITGLGETFFGAETVETYVHEYIAPRVIGRDPLQIDLLAQDLVGYLGFRSSGAEVRGNSAFDIALWDIFGKATNQPIAQLLGGFSRREIRTYNTCAGTEYIKKATGQQTANYGLSGGKDYDDLNGFLHRADELAHSLLEDGITAMKIWPFDAAAEKTRGQYISMPDLKSALEPFEKIRKAVGDKMDIMVEFHSMWQLLPAMQIAKALTPYQTFWHEDPIKMDSLSSLTRYAAVSPAPISASETLGSRWAFRDLLETGAAGVVMLDISWCGGLSEARKIASMAEAWHLPVAPHDCTGPVVLCASTHLSLNAPNALVQESVRAFYKTWYRDLVTALPEVKNGMITVPPGAGLGMELHPDIEKTFTVSRRFSDAASI | not soluble |
| MAAKQGESDPERKETRQKVDDDRKHEIEAAIVRIMKSRKKMQHNVLVAEVTQQLKARFLPSPVVIKKRIEGLIEREYLARTPEDRKVYTYVA | soluble |
| MAAAAAARKGGFWQRFAGKGVVQHCQSPTAPLPEACADMLWSNLGLLAAESIVPVLQNWARALKTDGLLFFTCFGRDTLAELKCRLKENGIESRSVMFPDMHDLGDMLAENGFYDPVTDTAKLVLDYKKAETFWADMDTLGIWRAMAWNDENAARSCVGTIFEREGGLGITLETVYGHAVKKLMLPQGENVVQFFPKRLEHHHHHH | soluble |
| DMGESVKIIDLARQMITLSGLKPNTPEQPDGDIEILITGLRPGEKLYEELLIGDNVRKTGHPRIMTANETMLPWHELSALLDRIRAACDRYDQQAIRT | not soluble |
| MFTYSLNLKLKTDRNFFGPGVVEVLQKIQQTGSLNLAAKEMKMSYNKAWRIVRVAEEELSFPLIIKSVGGCNGGGSIVTDQGKELIDQYLLFEKKVYQQVEACFEEIFKEQDVVSEELK | not soluble |
| SLSKLMLRHKAKKIDHVAIAVLDLEQAIGYFSMMGFTLSDRMTTTGAHSAMHSAVMEAGPIKFVLLEGANETSQITRFINEYGPGPQHIAIEVENVESLCKELEKQGLDFSTKTIKGPELIQRFTVRCPNSGVMIEFIERNEEEGFSEQNVEDLFRQLEASDAYEG | soluble |
| AELRSREYAEILKQKQELSLVEAGEFNSLGKRNGRVYFVETFDTESGIMKNLFLREQDKNGGDNIIFAKEGNFSLNDNKRTLELRHGYRYSGTPGRADYNQVSFQKLNLIISTTPKLIDPVSHRRTIPTAQLIGSSNPQHQAELMWR | soluble |
| MPTLGFRFRAYTDEQTLRALKAQLKLACKIYNTLRWADIYFYQRDGKGLTQTELRQLALDLRKQDDEYKQLYSQVVQQIADRYYEAKKRFFEGLARFPKEKKPHKYYSLVYTQSGWKILHVREIRKGSKKNKKKLITLKLSNLGTFKVIVHRDFPLDKVKRVVVKLTRSERIYITFVVEGYEFPKLPNTGKVVAIDVGVEKLLVTPDGEYFPNLRPLEKALWKVKHLHRELSRKKFLSNNWFKAKVKLARAYEHLKNLRSDLYMKLGKWFAEHYDVVVMEGIHAKQLVGKSLRSLRRRLSDVGFGELRDVLKYQLEKYGKKLILVNPAYTSKTCARCGYVKNDLSLSDRVFVCPNCGWIADRDYNASLNILKGAGSERSLVPVELRPLPVPALRYWHGRAVKQEAPSFMRGLEHHHHHH | soluble |
| GMVSRSPFESFQWKSDIFNCESTDIDNFYLLLEQEMTRLGMVEKNLGEVGKYKVSLYQSPAAKSGLPSLLISAGFHGEESAGPWGLLHFLSEASADLFERVNLSLLPLVNPTGFSRGHRFNKYGENPNRGFVFENGKPKANEHTSVEGKLLLDHAQLLIAACRDGILTCHEDVLSREAYVYSFEPSQVPGRFSLDLRDTLGGYFPIAVDGEIDACPVKDGLIFNHFDTSFEACLVRSGARVGACTETPALQNFDQRVLANSAAMTHFLALCAPLCD | soluble |
| MSLPNNEKITRLQQQEKNTQQTVTVAKNKAANLAKFQKEVEATTLDFETQAALLPKEKEIPKLLKDISALGSNTGLDFISFKPLANRPKDFYAEIPISIQVRGPYHNVGSFFDQINKLERIVSVKSVKMTSPKKEDGEMLLTSNCQLVTYQFTNIELPKEGHHHHHH | soluble |
| RCGAGGYEALRGPLGAAGRRARQAWTIAPGSRRRGKAAAQSSVPGAGHAGGGAAPRRPAAAVRPGSPPLAGALTPRPSPLQGPFPGRLLAGPPPRFPGGTMTDTRRRVKVYTLNEDRQWDDRGTGHVSSGYVERLKGMSLLVRAESDGSLLLESKINPNTAYQKQQDTLIVWSEAENYDLALSFQEKAGCDEIWEKICQVQGKDPSVDITQDLVDESEEERFDDMSSPGLELPSCELSRLEEIAELVASSLPSPLRREKLALALENEGYIKKLLELFHVCEDLENIEGLHHLYEIIKGIFLLNRTALFEVMFSEECIMDVIGCLEYDPALSQPRKHREFLTKTAKFKEVIPISDPELKQKIHQTYRVQYIQDMVLPTPSVFEENMLSTLHSFIFFNKVEIVGMLQEDEKFLTDLFAQLTDEATDEEKRQELVNFLKEFCAFSQTLQPQNRDAFFKTLSNMGILPALEVILGMDDTQVRSAATDIFSYLVEYNPSMVREFVMQEAQQNDDDILLINLIIEHMICDTDPELGGAVQLMGLLRTLVDPENMLATANKTEKTEFLGFFYKHCMHVLTAPLLANTTEDKPSKDDFQTAQLLALVLELLTFCVEHHTYHIKNYIINKDILRRVLVLMASKHAFLALCALRFKRKIIGLKDEFYNRYIMKSFLFEPVVKAFLNNGSRYNLMNSAIIEMFEFIRVEDIKSLTAHVIENYWKALEDVDYVQTFKGLKLRFEQQRERQDNPKLDSMRSILRNHRYRRDARTLEDEEEMWFNTDEDDMEDGEAVVSPSDKTKNDDDIMDPISKFMERKKLKESEEKEVLLKTNLSGRQSPSFKLSLSSGTKTNLTSQSSTTNLPGSPGSPGSPGSPGSPGSVPKNTSQTAAITTKGGLVGLVDYPDDDEDDDEDEDKEDTLPLSKKAKFDS | soluble |
| MTDIAQLLGKDADSLLQHRCMTIPSDQLYLPGKDYVDRVMIDNNRPPAVLRNMQTLYNTGRLAGTGYLSILPVDQGVEHSAGASFAANPRYFDPKNIVELAIEAGCNCVASTYGVLASVSRRYAHRIPFLVKLNHNETLSYPTEYDQTLYASVEQAFNMGAVAVGATIYFGSEQSRRQIEEISAAFERAHELGMVTVLWAYLRNSSFKKDGVDYHVSADLTGQANHLAATIGADIVKQKMAENNGGYKAVNFGYTDDRVYSKLTSDNPIDLVRYQLANCYMGRAGLINSGGADGGDTDLGDAVRTAVINKRAGGMGLILGRKAFKKSMADGVKLINAVQDVYLDSKVTIA | not soluble |
| MGSDKIHHHHHHMLKIGLLWHSTTSDNLGVGALTEAQISIINKAAVQAGVEVEYRIFGTNGNKDYFEGNPLIERGTNVSLKRILIGASDYPKKIRECDVVFDIGEGDSFADIYGFSRFLIQIVSKLVVLFQRKPLILSPQTIGPFESRFNLKVANNVMQRCTKIFVRDGLSFGYLQKNNLSVNAEEVIDVAFRLPFQRPSRDSSKVKIGLNVSGLLYNGGYTGKNQFGLSVNYPELTRSLLDQFTRIEGCEVWLVPHVLTTSFPIEDDVNVCVQLQELYPAAKLAPSFSSPSQAKSFISGMDFFLGARMHACIAAFSSGVPVVPLAYSRKFNGLFSALDYPYLGDCKVNTNEQIVGLVMDCFNSREQLKFAVEEGNKIAEKKLLRYEQYIAELLTRISNKKIVL | not soluble |
| MEKLLIEGGRALNGTIRVSGAKNSAVALIPATILADTPVTIGGVPNISDVKMLGDLLEEIGGRVTYGQEEEMVVDPSNMVAMPLPNGKVKKLRASYYLMGAMLGRFKKAVIGLPGGCHLGPRPIDQHIKGFEALGAHVTNEQGAIYLRADELRGARIYLDVVSVGATINIMLAAVRAKGRTVIENAAKEPEIIDVATLLTSMGARIKGAGTDVIRIDGVDSLHGCHHTIIPDRIEAGTYMILGAASGGEVTVDNVIPQHLESVTAKLREAGVQVETNDDQITVNGDRRLKVVDIKTLVYPGFPTDLQQPFTTLLTKAHGTGVVTDTIYGARFKHIDELRRMNAQIKVEGRSAIVTGPVLLQGAKVKASDLRAGAALVIAGLMADGITEVTGLEHIDRGYENIVDKLKGLGANIWREQMTKQEIEEMKNA | not soluble |
| MSLKNTLILGIESSCDETAASVVKNGNEIISSVVASQIESHKRFGGVVPEIASRHHVEQITLVIEEALKQANVTMDDLDGVAVTEGPGLVGALLIGVNAAKTLAFMHNLPLVGVHHIAGHIYANRFETEFKFPLLSLVVSGGHTELVLMKADNEFEIIGETRDDAAGEAYDKVARTLGLAYPGGVQIDKLAKDGEDTFHFPRAMMDEGSFDFSFSGLKSSFINTLHNLRQRGEEPNPNDMAASFQASVVDVLVSKTIRAAKQYDVKQLLLAGGVAANQGLRERLIQEVKLELPETELIIPPLALCGDNAAMIAAAGTVSFLQGKRSGFDMNANPGLLLEDIEGHHHHHH | soluble |
| MSHHFRLAKGIPHVVDATPPHSMYNSPISIHYLPKRASSADPFKRKALSKSQRELTDFVNGRNGDPHGLRLPLPIRSSLTDLVKPKLLENRNYQPPRRKTPSKDHHSKAEENSKKAKKLERINKFKDAVLTDLIENDTYSDQMIMNSIRRHMEKLAGVISWDDLEKAADELIKKIGLNTNVQNSRRSSRSRDKNQRFNKPPLPYKVERIGSAQSLESLSSPSSSSAKTSSSSSSSSFSTSSQETNSSESS | not soluble |
| SLIDKIKSNARDLRRNLTLQERKLWRYLRSRRFSDFKFRRQHPVGSYILDFACCSARVVVELDGGQHDLAVAYDSRRTSWLESQGWTVLRFWNNEIDCNEETVLENILQELNRRSPSP | soluble |
| MIKIGVITMALLSFLNAGWFSLLFGSNPDPISIPIDLSQAGSVVEREVKIEETWAYDLFLEFAVLDRKEDGGLDGKKVRKFLGFNSYNPYDGKKLGFGDYEQAKRKLGDLIDETYDCDGTIAPIKLTIHQINKDNTKKLIVDNLYMTKGYSSGAYERDIAIISLDKGKYIFRIENIEAFQEMNARKVNFIIRIHKRDK | not soluble |

Reference: the DeepSol protein solubility set
